{
  "source": "patent US20230212319A1",
  "about": "“NOVEL ANTIGEN BINDING DOMAINS AND SYNTHETIC ANTIGEN RECEPTORS INCORPORATING THE SAME” (University of Southern California, priority 2020, published 2023)",
  "format_in_all_cases": "cell-based",
  "key": {"[1]": {"system": "RAJI cells", "assay": "JNG assay, co-culture with RAJI cells", "settings": "JNG cells expressing construct, co-culture with Raji", "outline": "(§1)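 Read-out is NFAT-driven GFP measured by flow cytometry after ~4–18 h co-culture of SAR-expressing JNG cells with target cells (E:T about 1:2). SARs were introduced by lentiviral spinfection and selected with puromycin or blasticidin when possible; scores (+/- to 5+ ≈ 5–50% GFP+) are relative to parental JNG cells.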"}, "[2]": {"system": "RAJI-CD19-KO cells", "assay": "JNG assay, co-culture with RAJI-CD19-KO cells", "settings": "co-culture with Raji-CD19-KO", "outline": "as §1"}, "[3]": {"system": "L363 cells", "assay": "JNG assay, co-culture with L363 cells", "settings": "co-culture with L363", "outline": "as §1"}, "[4]": {"system": "RS;411", "assay": "JNG assay, co-culture with RS;411 cells", "settings": "co-culture with RS411", "outline": "as §1"}, "[5]": {"system": "U266 cells", "assay": "JNG NFAT-GFP induction on co-culture with U266"}, "[6]": {"system": "Nalm6 cells", "assay": "JNG assay, co-culture with Nalm6 cells", "settings": "co-culture with Nalm6", "outline": "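Scoring uses % GFP+ reporter cells above the parental control, where +/-, +, 2+, 3+, 4+ and 5+ correspond to about 5, 10, 20, 30, 40 and 50%. Effectors were SAR-expressing Jurkat NFAT-GFP cells cocultured with targets (E:T ~1:2, ~4–18 h).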"}},
  "data": [
    {"molecule": "22249 (protein) MALPVTALLLPLALLLHAARPDIQMTQSPSSLSASVGDRVTITCKASDHINNWLAWYQQKPGQAPKLLIYGATTLETGVPSRFSGSGSGTDYTLTISSLQPEDFATYYCQQSWNTPWTFGQGTKLEIKRLEDLKNVFPPEVAVFEPSEAEISHTQKATLVCLATGFYPDHVELSWWVNGKEVHSGVCTDPQPLKEQPALNDSRYCLSSRLRVSATFWQNPRNHFRCQVQFYGLSENDEWTQDRAKPVTQIVSAEAWGRADCGFTSESYQQGVLSATILYEILLGKATLYAVLVSALVLMAMVKRKDSRGRAKRSGSGATNFSLLKQAGDVEENPGPTSATMDWIWRILFLVGAATGAHSGPEVQLVESGGGLVQAGGSLRLSCAASGRTFTMGWFRQAPGKEREFVAAISLSPTLAYYADSVKGRFTISRDNAKNTVVLQMNSLKPEDTALYYCAADRKSVMSIRPDYWGQGTQVTVSSGSALRRLLGLFGFEQVQLQQPGAELVKPGASVKMSCKASGYAFSSYWINWMKQKPGQGLEWIGQIYPGDGDTNYNGKFKGRATLTADTSSSTAYMQLSSLTSEDSAVYFCARSITTVVGCAMDYWGQGTSVTVSSTRIQNPDPAVYQLRDSKSSDKSVCLFTDFDSQTNVSQSKDSDVYITDKCVLDMRSMDFKSNSAVAWSNKSDFACANAFNNSIIPEDTFFPSPESSCDVKLVEKSFETDTNLNFQNLSVIGFRILLLKVAGFNLLMTLRLWSSRAKRSGSGVKQTLNFDLLKLAGDVESNPGPSRGHMTEYKPTVRLATRDDVPRAVRTLAAAFADYPATRHTVDPDRHIERVTELQELFLTRVGLDIGKVWVADDGAAVAVWTTPESVEAGAVFAEIGPRMAELSGSRLAAQQQMEGLLAPHRPKEPAWFLATVGVSPDHQGKGLGSAVVLPGVEAAERAGVPAFLETSAPRNLPFYERLGFTVTADVEVPEGPRTWCMTRKPGA", "values": [
      {"measurement": "NFAT-GFP ASSAY: Raji", "setting": "[1]", "value": "+ (refer to approximately 5%, 10%, 20%, 30%, 40% and 50% GFP positive cells)"},
      {"measurement": "NFAT-GFP ASSAY: Raji-CD19-KO", "setting": "[2]", "value": "2+ (refer to approximately 5%, 10%, 20%, 30%, 40% and 50% GFP positive cells)"},
      {"measurement": "NFAT-GFP ASSAY: L363", "setting": "[3]", "value": "2+ (refer to approximately 5%, 10%, 20%, 30%, 40% and 50% GFP positive cells)"},
      {"measurement": "NFAT-GFP ASSAY: RS411", "setting": "[4]", "value": "+ (refer to approximately 5%, 10%, 20%, 30%, 40% and 50% GFP positive cells)"},
      {"measurement": "NFAT-GFP ASSAY: U266", "setting": "[5]", "value": "4+ (refer to approximately 5%, 10%, 20%, 30%, 40% and 50% GFP positive cells)"}
    ]},
    {"molecule": "22225 (protein) MALPVTALLLPLALLLHAARPDIQMTQSPSSLSASVGDRVTITCKASDHINNWLAWYQQKPGQAPKLLIYGATTLETGVPSRFSGSGSGTDYTLTISSLQPEDFATYYCQQSWNTPWTFGQGTKLEIKRLEDLKNVFPPEVAVFEPSEAEISHTQKATLVCLATGFYPDHVELSWWVNGKEVHSGVCTDPQPLKEQPALNDSRYCLSSRLRVSATFWQNPRNHFRCQVQFYGLSENDEWTQDRAKPVTQIVSAEAWGRADCGFTSESYQQGVLSATILYEILLGKATLYAVLVSALVLMAMVKRKDSRGRAKRSGSGATNFSLLKQAGDVEENPGPTSATMDWIWRILFLVGAATGAHSGPEVQLVESGGGLVQAGGSLRLSCAASGRTFTMGWFRQAPGKEREFVAAISLSPTLAYYADSVKGRFTISRDNAKNTVVLQMNSLKPEDTALYYCAADRKSVMSIRPDYWGQGTQVTVSSGSGPLGIAGIFEQVQLQQPGAELVKPGASVKMSCKASGYAFSSYWINWMKQKPGQGLEWIGQIYPGDGDTNYNGKFKGRATLTADTSSSTAYMQLSSLTSEDSAVYFCARSITTVVGCAMDYWGQGTSVTVSSTRIQNPDPAVYQLRDSKSSDKSVCLFTDFDSQTNVSQSKDSDVYITDKCVLDMRSMDFKSNSAVAWSNKSDFACANAFNNSIIPEDTFFPSPESSCDVKLVEKSFETDTNLNFQNLSVIGFRILLLKVAGFNLLMTLRLWSSRAKRSGSGVKQTLNFDLLKLAGDVESNPGPSRGHMTEYKPTVRLATRDDVPRAVRTLAAAFADYPATRHTVDPDRHIERVTELQELFLTRVGLDIGKVWVADDGAAVAVWTTPESVEAGAVFAEIGPRMAELSGSRLAAQQQMEGLLAPHRPKEPAWFLATVGVSPDHQGKGLGSAVVLPGVEAAERAGVPAFLETSAPRNLPFYERLGFTVTADVEVPEGPRTWCMTRKPGA", "values": [
      {"measurement": "NFAT-GFP ASSAY: Raji-CD19-KO", "setting": "[2]", "value": "4+ (refer to approximately 5%, 10%, 20%, 30%, 40% and 50% GFP positive cells)"},
      {"measurement": "NFAT-GFP ASSAY: L363", "setting": "[3]", "value": "3+ (refer to approximately 5%, 10%, 20%, 30%, 40% and 50% GFP positive cells)"},
      {"measurement": "NFAT-GFP ASSAY: Nalm6", "setting": "[6]", "value": "3+ (refer to approximately 5%, 10%, 20%, 30%, 40% and 50% GFP positive cells)"},
      {"measurement": "NFAT-GFP ASSAY: RS411", "setting": "[4]", "value": "2+ (refer to approximately 5%, 10%, 20%, 30%, 40% and 50% GFP positive cells)"},
      {"measurement": "NFAT-GFP ASSAY: U266", "setting": "[5]", "value": "5+ (refer to approximately 5%, 10%, 20%, 30%, 40% and 50% GFP positive cells)"}
    ]},
    {"molecule": "22250 (protein) MALPVTALLLPLALLLHAARPDIQMTQSPSSLSASVGDRVTITCKASDHINNWLAWYQQKPGQAPKLLIYGATTLETGVPSRFSGSGSGTDYTLTISSLQPEDFATYYCQQSWNTPWTFGQGTKLEIKRLEDLKNVFPPEVAVFEPSEAEISHTQKATLVCLATGFYPDHVELSWWVNGKEVHSGVCTDPQPLKEQPALNDSRYCLSSRLRVSATFWQNPRNHFRCQVQFYGLSENDEWTQDRAKPVTQIVSAEAWGRADCGFTSESYQQGVLSATILYEILLGKATLYAVLVSALVLMAMVKRKDSRGRAKRSGSGATNFSLLKQAGDVEENPGPTSATMDWIWRILFLVGAATGAHSGPEVQLVESGGGLVQAGGSLRLSCAASGRTFTMGWFRQAPGKEREFVAAISLSPTLAYYADSVKGRFTISRDNAKNTVVLQMNSLKPEDTALYYCAADRKSVMSIRPDYWGQGTQVTVSSGSGPLGIAGIFEQVQLQQPGAELVKPGASVKMSCKASGYAFSSYWINWMKQKPGQGLEWIGQIYPGDGDTNYNGKFKGRATLTADTSSSTAYMQLSSLTSEDSAVYFCARSITTVVGCAMDYWGQGTSVTVSSTRIQNPDPAVYQLRDSKSSDKSVCLFTDFDSQTNVSQSKDSDVYITDKCVLDMRSMDFKSNSAVAWSNKSDFACANAFNNSIIPEDTFFPSPESSCDVKLVEKSFETDTNLNFQNLSVIGFRILLLKVAGFNLLMTLRLWSSRAKRSGSGVKQTLNFDLLKLAGDVESNPGPSRGHMTEYKPTVRLATRDDVPRAVRTLAAAFADYPATRHTVDPDRHIERVTELQELFLTRVGLDIGKVWVADDGAAVAVWTTPESVEAGAVFAEIGPRMAELSGSRLAAQQQMEGLLAPHRPKEPAWFLATVGVSPDHQGKGLGSAVVLPGVEAAERAGVPAFLETSAPRNLPFYERLGFTVTADVEVPEGPRTWCMTRKPGA", "values": [
      {"measurement": "NFAT-GFP ASSAY: Raji-CD19-KO", "setting": "[2]", "value": "4+ (refer to approximately 5%, 10%, 20%, 30%, 40% and 50% GFP positive cells)"},
      {"measurement": "NFAT-GFP ASSAY: L363", "setting": "[3]", "value": "3+ (refer to approximately 5%, 10%, 20%, 30%, 40% and 50% GFP positive cells)"},
      {"measurement": "NFAT-GFP ASSAY: Nalm6", "setting": "[6]", "value": "3+ (refer to approximately 5%, 10%, 20%, 30%, 40% and 50% GFP positive cells)"},
      {"measurement": "NFAT-GFP ASSAY: RS411", "setting": "[4]", "value": "2+ (refer to approximately 5%, 10%, 20%, 30%, 40% and 50% GFP positive cells)"},
      {"measurement": "NFAT-GFP ASSAY: U266", "setting": "[5]", "value": "5+ (refer to approximately 5%, 10%, 20%, 30%, 40% and 50% GFP positive cells)"}
    ]},
    {"molecule": "22221 (protein) MALPVTALLLPLALLLHAARPACEVQLLESGGGLIQPGGSLRLSCAASGFTFSSHAMTWVRQAPGKGLEWVSAISGSGDYTHYADSVKGRFTISRDNSKNTVYLQMNSLRAEDSAVYYCAKDEDGGSLLGHRGQGTLVTVSSGTGPQGIFGQPGYINEFDIQMTQSPSSLSASVGDRVTITCKASDHINNWLAWYQQKPGQAPKLLIYGATTLETGVPSRFSGSGSGTDYTLTISSLQPEDFATYYCQQSWNTPWTFGQGTKLEIKRLEDLKNVFPPEVAVFEPSKAEIAHTQKATLVCLATGFYPDHVELSWWVNGKEVHSGVCTDPQPLKEQPALNDSRYCLSSRLRVSATFWQNPRNHFRCQVQFYGLSENDEWTQDRAKPVTQIVSAEAWGRADCGITSASYHQGVLSATILYEILLGKATLYAVLVSALVLMAMVKRKDSRGRAKRSGSGATNFSLLKQAGDVEENPGPTSATMDWIWRILFLVGAATGAHSGPEVQLVESGGGLVQAGGSLRLSCAASGRTFSMGWFRQAPGKEREFVAAITYSGGSPYYADSVKGRFTISRDNAKNTVYLQMNSLKPEDTAVYYCAANPTYGSDWNAENWGQGTQVTVSSGSGGGGSGGGGSGGGGSFEQVQLQQPGAELVKPGASVKMSCKASGYAFSSYWINWMKQKPGQGLEWIGQIYPGDGDTNYNGKFKGRATLTADTSSSTAYMQLSSLTSEDSAVYFCARSITTVVGCAMDYWGQGTSVTVSSTRIQNPDPAVYQLRDSKSSDKSVCLFTDFDSQTNVSQSKDSDVYITDKCVLDMRSMDFKSNSAVAWSNKSDFACANAFNNSIIPEDTFFPSPESSCDVKLVEKSFETDTNLNFQNLSVIGFRILLLKVAGFNLLMTLRLWSSRAKRSGSGVKQTLNFDLLKLAGDVESNPGPSRGHMTEYKPTVRLATRDDVPRAVRTLAAAFADYPATRHTVDPDRHIERVTELQELFLTRVGLDIGKVWVADDGAAVAVWTTPESVEAGAVFAEIGPRMAELSGSRLAAQQQMEGLLAPHRPKEPAWFLATVGVSPDHQGKGLGSAVVLPGVEAAERAGVPAFLETSAPRNLPFYERLGFTVTADVEVPEGPRTWCMTRKPGA", "values": [
      {"measurement": "NFAT-GFP ASSAY: L363", "setting": "[3]", "value": "+ (refer to approximately 5%, 10%, 20%, 30%, 40% and 50% GFP positive cells)"},
      {"measurement": "NFAT-GFP ASSAY: Nalm6", "setting": "[6]", "value": "+ (refer to approximately 5%, 10%, 20%, 30%, 40% and 50% GFP positive cells)"},
      {"measurement": "NFAT-GFP ASSAY: RS411", "setting": "[4]", "value": "+ (refer to approximately 5%, 10%, 20%, 30%, 40% and 50% GFP positive cells)"},
      {"measurement": "NFAT-GFP ASSAY: U266", "setting": "[5]", "value": "2+ (refer to approximately 5%, 10%, 20%, 30%, 40% and 50% GFP positive cells)"}
    ]}
  ]
}
